Assay results published in the DeepSol protein solubility set.

assay: soluble on expression in E. coli; label from the status in PepcDB or PDB records

| Sequence | soluble on expression in E. coli |
| --- | --- |
| MSEFTQDTVQKPIDELVTWVKQYDFSLNLPTERLAFLLAIAVLSNERFDEELGEGELHDAFAIVTRLFAESGEASAFRANNAINDLVKQRLLSRFTSEMTEGASIYRLTPLAIGITDYYVRHREFSKLKLSIQLSMVADEMAKAVESAQQGGSVAHWRKNVFGVLKYSVSEIFDRIDLNQRVMDEQQQSVKEQIADLLNKDWRDAINNCEALLSETSATLRELQDTLQAAGDELQTQILDIQECVYGDLELDFIEETLSALQMKLDRITSWGQQSIDLWIGYDRHVHKFIRTAIDMDQNRAFSQRLRQSMNDYFEQPWYLTYADAERLSDLRDETLTLRDEEVTGHVPTEVEYEELQQVNDELAQRIGDMLKVHKEQGAAIDLALVLRDYLASHPRTHHFDLARMVVDQAVRLGYSESDYRAIQPDWTAINDFGAKVQANVIDRYLEHHHHHH | soluble |
| MDVRQSIHSAHAKTLDTQGLRNEFLVEKVFVADEYTMVYSHIDRIIVGGIMPITKTVSVGGEVGKQLGVSYFLERRELGVINIGGAGTITVDGQCYEIGHRDALYVGKGAKEVVFASIDTGTPAKFYYNCAPAHTTYPTKKVTPDEVSPVTLGDNLTSNRRTINKYFVPDVLETCQLSMGLTELAPGNLWNTMPCHTHERRMEVYFYFNMDDDACVFHMMGQPQETRHIVMHNEQAVISPSWSIHSGVGTKAYTFIWGMVGENQVFDDMDHVAVKDLR | not soluble |
| MGSDKIHHHHHHMKILFLADEESKMYWEYFKKEDFKGIDIIVSCGDLNPSYLSFLTTMVGVPLLYVHGNHDDKYNVKPPEGCICIEDEIYEYEGVRFLGLGGSNRYKPGENQYTQKEMTKRVKKLWWKLKRKNGFDVLVTHSPAKGLHDGEDTCHTGFDVFNRLIEQYKPRYFVHGHVHMSYGRQFVRLDKVGETTVINAYEKYIVEI | not soluble |
| MSLIAIYVRVSTEEQAIKGSSIDSQIEACIKKAGTKDVLKYADEGFSGELLERPALNRLREDASKGLISQVICYDPDRLSRKLMNQLIIDDELRKRNIPLIFVNGEYANSPEGQLFFAMRGAISEFEKAKIKERTSSGRLQKMKKGMIIKDSKLYGYKFVKEKRTLEILEEEAKIIRMIFNYFTDHKSPFFGRVNGIALHLTQMGVKTKKGAKVWHRQVVRQILMNSSYKGEHRQYKYDTEGSYVSKQAGNKSIIKIRPEEEQITVTIPAIVPAEQWDYAQELLGQSKREGHHHHHH | soluble |
| MFVMEKVLFPFSAVVDEDDLKMALILNAIDQRIGGVLIMGPKGVAKSTIARSLTDLLPDIDVVKDCPFKCDPHDPSSMCDECIKKYRDGTIVSEKRKIPFVNMPVTATLDRVVGSLDIKRAIDEGLRALQPGLLAEANRGIIYIDEVNLLDDSVVDSILDSAASGINVVEREGVSVTHPARFILIGTMNPEEGDLRPQLKDRFGLSVTAVQPSDPEELIEISNRVEEFDRDPEAFRRKYEKIQNEIRNRIMRARSLLPSVVIDEDLKRFIAEVVIKLQAGNRAMITAVKASKAIAAFNGRDRVNIDDVKEALNLVLKHRVKDSAMIRGTIEKESRDLSTRSVEAGPHSGYEEGSESSGRRDMKAGNGKDEEKDVEVSAAFDEESNRSGRTGNADIFRILDQNRPGDHFDYRASLVNMIMNGRRRMKYEDLAFVSSRSRASIPVILAVDASRSMETMHRIALARGIARSFLHSAYRMRVKLSYITFYGTESHLMVEPTRNLDLIDREISRTVPQGKTPIPAALKMMYDISSRYRQRTVSIMITDGRANVPLGNDVTHDVREWSAKLGTRSDLFLISSTMGSERFMPSYNEDICRYSGGQLIEMDGNGHIALYSGYRRY | soluble |
| MIMATLVITIGNDDCVNEGINIICNQCRPIYMNEDNKIIVNVVGEEKFGAGHNAEYITKQVDKHLGIIRDYIIEGLTDCYVEYDENGKEIFIPKTK | not soluble |
| MAHHHHHHMMAAPGTSQLDSLKATARKGFYTGLSSGLMRQLIYATARLGFYPSFRDGILEGEVALGLKRSADPAGATALDRALAGASAGVFASFLSSPVEVCLVLQTTSKGKERLSMLQACNSVLKSRGVTGLWSGFGALASRAALVGVSQVAVHDQVLTMLRKRNVKRADPLGDNVVVNIASVITALFYSIVTMPVEVARVRMSAEAKLSAGAERRYHNVVQCIGRIFKEEGLLAMYDSYLPYFSRCASQTVICFFVIEYLTRELRERQKAKTNLIK | soluble |
| MDKSDMQRTVDSLRSQLNIERTPITVSAAELRRFTESQEDPLVNPIDKKVNPWAEKSKCSML | not soluble |
| MEKNYYVCTGCGMLCDDIEVDVENNKINKVYTACRIGVAHMKDGKESAAFLVDNKPVDETTAISEAATILKNAKNPLIFGLGTSSNEAQKLAIELAKKTSATLDDASSFSLGEVIEALLNNKTKVCTLDDVRNKADVSIFWGTDPSDSHPRQLSKYAYFPRGTEKQRGWEEERTAICIDVRKSHTAKICGNYFFQIPPGGDAEFIDALIAALAGKLPKTSYNFPPKRILELANILKGAKFGVVFAGRGLVYSLDNLEPLIRLMNALNEKANFHLVPMIRQYNTRGFNENLFKETGYVNSVKFEDGTVKHGPEYSVVESLKEKTVDAALIIGSDPFSILPRSIAKNLLEVPVIVLDPCETLTSRNAKVYISTAIDGVESGGSAIRMDGVKVDFKPAVETKRPSDETVLKKIMEAL | not soluble |
| MGSDKIHHHHHHMKDKSNSPLIKELKLANLLSFGSETTDIQLNSLNVVVGPNGSGKSNLIDAISLLQASPSDLAVPIRKGGGIRDWLWRGMELPTASMEVITPSAPHGNKDLRYYLAFTALKQRFELIDECLETKEPYTNHSEPYFYYRYQNGNPVINNIKDQKRMLKREDIDPEQSILSQRKDPDQYPEITWLGKQFAAIRIYREWNFGRKALLRQPQGADAPNDYLAEDCSNLGLVLNKLRTNYKVKKKVLDLLSQFYEGIDDFDVIVEGGTVQLFLQEGEFMIPATRLSDGTLRFLCLLAILCNPDPPPLICIEEPELGIHSDIIPVIGQLLKDASKMTQLIVTTHSEILVDELTDMPEAVLVCEKHEGMTRFRRLEKDLLKDWLERYSLGELWRKGEIGGTRW | not soluble |
| MVRVPLTAEELERGQRLGELLRSARGDMSMVTVAFDAGISVETLRKIETGRIATPAFFTIAAVARVLDLSLDDVAAVVTFGPVSTS | soluble |
| GSSANDWQCKTCSNVNWARRSECNMCNTPKYAK | soluble |
| MTQPLVGKQILIVEDEPVFRSLLDSWFSSLGATTALAGDGVDALELMGRFTPDLMICDIAMPRMNGLKLVENLRNRGDQTPILVISATENMADIAKALRLGVEDVLLKPVKDLNRLRETVFACLYPNMFNSRVEEEERLFRDWDAMVSNPTAAAQLLQELQPPVQQVISHCRINYRQLVSADQPGLVLDIAPLSDNELAFYCLDVTRAGDNGVLAALLLRALFNGLLQDQLGQQKHRLPELGALLKQVNHLLRQANLPGQFPLFVGYYHSELKNLILVSAGLNATLNTGAHQVQISSGVPLGTLGNAYLNQLSQRCDSWQCQIWGAGGRLRLMLSAE | not soluble |
| MLKSEDADYEKAMKDKVGTGPQEYLKQLSDSLVKNQSAASVEVVSGATHSSDAFINYANQLIQAAQKADTTTISINNLAKMEDGTYKLEEQNYAHGYRVVFSMDVKDGKITKSDYNYVDKDGKLKSDDADYEKNMKAKSGTGPKEYIPALNKSLVEKQDVAAVDTVSGATNSSNQFKIYAAQLQNAAQNGNTDTIKVYNLVEAELEHHHHHH | soluble |
| WPALDDETLLARLELWLEPYLAGVTSVKGLQSVSVLQALKHYLGWELSQQLDEWLPTHHLLPTGNHKKIRYQLGMEPTLSVRMQEVFGEQSSPRVAKGTRAVVMELLSPAQRPLQVTRDLASFWAGAYKEVQKEMKGRYPKHVWPDDP | not soluble |
| MGSDKIHHHHHHMGMILNGYLEVINHLQQLPLALILIFNLKIMKQIIYVFLLTVLSSCDSYLSKVPSPSTSAPINNVEQLVAIYDNATAFINETNPFACYSNDDADLTAELYKADPSAFAISSTVFYNILHTAGIASQASDGLWNGEYSNIFKANTIINNVDKVTGDESEKIKLKCNAHFLRAYSYFVLAQYYCLPYCEANKNALGLPKRLNTDFEESIARVSLDEIYQLILDDLEIAAVTPDKSVNPNFPWRICQATVNALLSRVYLTMGNYKEAQATAEKALEGAPELLDFNELGYAPVESYPEMEGLPAQDVYNCETHKWTTIKYLYWKEFLFPRFTYARSQWIIPSDDLVSLYDQQNDRRFKLFFVEHGNRRMGVPYEAYRYNQFYDGRYIISGLTTAEMLLNKAEAQIRQGMWQEGLKTLDVLREKRYEAGTYISLSAGNQSEALSIVLAERRREMPFSMRIPDIKRYGVNEILEDDVTVVKNFFEISMSEVFIDKPKTYTIPSNSLLWAMPINDVEIGSSNGAIQQNRYE | not soluble |
| MPQVAGGRPRPPRGFRDFPPEVMILRKRLLSRLERVFESYGFDPLDTPAVEYWETLSGKYGEEAESRLIWRFQDPWSGRWYALRYDLTVPLARFVASNPGLPMPFKRYHIGKVWRHEEPQKGRYREFVQCDADIVGSPYPEADAEIVSLAVDSIDALGLPGFRVRVNDRRLLAGVFEEELGFDNPLPIYRAIDKLDKIGVEGVRRELERLGLPGSTVERIMEIISWRGRPGEVLESVRRGYGSNEKVREALDHLEEMLSLADDKRVELDMSLVRGLDYYTGPILEVVLDEPRIGSVAGGGRYDGLVGMFAGRDIPATGVSIGIERIIDAGLELGVYSLDVKTVAQVAVVVLDRRYYRYAWEAARILRRGGLNVRIDLSRASGQVQRRKASRLGIPVLAFVGAKEAEGGFLTLYSAAKGERVAVPLGEAVKAVERLLPS | soluble |
| MGSDKIHHHHHHMYKYKFTVFTPTYNRAHLLENLYNDLKAQTYDFNDFEWLIVDDGSSDSTKELVEKFISENKLNIRYIYKENGGKHTAINLGVKNADGELFFIVDSDDGLIKDSLEIANDEWDSLENKEGFSGVVGLCVYPSGDLIGTEMPEDKKICHFADLYFKYGVKGDKSIVFVTDELIKFPFPERKEVRFLPESVVWNEMSKYYKVICVNKPMIIRDYLDDGLTKNILSKNALRGRALEFLYLINQNTYPLSRYPYMWIKNYINLARYSLLSDSHYFGELRKVSDKLLYLALFPLGYYKYIGQRKLVSK | not soluble |
| MGHHHHHHSHMSFTTRSTFSTNYRSLGSVQAPSYGARPVSSAASVYAGAGGSGSRISVSRSTSFRGGMGSGGLATGIAGGLAGMGGIQNEKETMQSLNDRLASYLDRVRSLETENRRLESKIREHLEKKGPQVRDWSHYFKIIEDLRAQIFANTVDNARIVLQIDNARLAADDFRVKYETELAMRQSVENDIHGLRKVIDDTNITRLQLETEIEALKEELLFMKKNHEEEVKGLQAQIASSGLTVEVDAPKSQDLAKIMADIRAQYDELARKNREELDKYWSQQIEESTTVVTTQSAEVGAAETTLTELRRTVQSLEIDLDSMRNLKASLENSLREVEARYALQMEQLNGILLHLESELAQTRAEGQRQAQEYEALLNIKVKLEAEIATYRRLLEDGEDFNLG | soluble |
| GMYNPVGVAAIGLGRWAYVMADAYTKSEKLKLVTCYSRTEDKREKFGKRYNCAGDATMEALLAREDVEMVIITVPNDKHAEVIEQCARSGKHIYVEKPISVSLDHAQRIDQVIKETGVKFLCGHSSRRLGALRKMKEMIDTKEIGEVSSIEAVFSNERGLELKKGNWRGEPATAPGGPLTQLGVHQIDNLQFLLGPVARVFNFGKPMYTEVENITVNQTLLEFEDGKQAYLGTNWACPGVFSINVYGTKANLFYQLDFSWWSNSDVTDEHSTLIKREFASMSDDPDNRILRDVKVDFESVDHLRVEVEEVADVIRNGGETEIGAEASLRNLAVVLAAVKSVHEKRPVEIAEIIG | soluble |
| MSLTEWLTIFDSERNTLGKKLRDEVHRDGNWHETFHCWFVEKDAEDMFLYFQLRSKNKKEAPLIWDITSAGHIMHDEDVQIGGLREIEEELGLSFQTTDLAYKGIFTIDYEISNLTDREFCHMYFHNVINPLPFAPGEEVDDVMKIHATSFLQLLKREISSFTATSVLSNKSITITFSDIYPYDFAYYEFVVEQGKELLKNNDEGHHHHHH | soluble |
| MATAATTASRSTTAGTSSTMGTPATTSAASRTTTTGTTTTMGQLIT | not soluble |
